This note sets out measurements from patent publication US20250297255A1 (ARSENAL BIOSCIENCES, published 2025).

B1: TMPRSS4 Ab74 scFv (VH-VL) (scFv)
scFv: EVQLLESGGGLVQPGGSLRLSCAASGFTFSSYAMHWVRQAPGKGLEWVSSISSSSTYIHYADSVKGRFTISRDNSKNTLYLQMNSLRAEDTAVYYCARVGRYYGSGSSLVDYWGQGTLVTVSSGGGGSGGGGSGGGGSDIQMTQSPSSLSASVGDRVTITCRASQSVSSWLAWYQQKPGKAPKLLIYDASSLQSGVPSRFSGSGSGTDFTLTISSLQPEDFATYYCQQAKSFPPTFGQGTKVEIK
notes: on monoclonal phage in the screen
B2: TMPRSS4 Ab67 scFv (VH-VL) (scFv)
scFv: QVQLVQSGAEVKKPGSSVKVSCKASGYTFTSYDINWVRQAPGQGLEWMGGIIPIFGTANYAQKFQGRVTITADESTSTAYMELSSLRSEDTAVYYCATTPGDAFDIWGQGTMVTVSSGGGGSGGGGSGGGGSDIVMTQSPDSLAVSLGERATINCKSSQSVLYSSNNKNYLAWYQQKPGQPPKLLIYWASTRESGVPDRFSGSGSGTDFTLTISSLQAEDVAVYYCQQYSDTPLTFGQGTKVEIK
notes: as for B1
B3: TMPRSS4 Ab8 scFv (VH-VL) (scFv)
scFv: QVQLVQSGAEVKKPGASVKVSCKASGYRFTSQYMHWVRQAPGQGLEWMGIINPSGGSTSYAQKFQGRVTMTRDTSTSTVYMELSSLRSEDTAVYYCARGRIAVAGHPLGYWGQGTLVTVSSGGGGSGGGGSGGGGSDIQMTQSPSSLSASVGDRVTITCRASQSISSWLAWYQQKPGKAPKLLIYGASSLQSGVPSRFSGSGSGTDFTLTISSLQPEDFATYYCQQANSFPPTFGGGTKVEIK
notes: as for B1
B4: TMPRSS4 Ab75 scFv (VH-VL) (scFv)
scFv: EVQLLESGGGLVQPGGSLRLSCAASGFTFSSYAMSWVRQAPGKGLEWVSSISSASSYKYYADSVKGRFTISRDNSKNTLYLQMNSLRAEDTAVYYCARDIYSSGWRGYYYYGMDVWGQGTTVTVSSGGGGSGGGGSGGGGSDIQMTQSPSSLSASVGDRVTITCRASQGIRNDLNWYQQKPGKAPKLLIYAATRLQSGVPSRFSGSGSGTDFTLTISSLQPEDFATYYCQQAHSFPYSFGQGTRLEIK
notes: as for B1
B5: TMPRSS4 Ab77 scFv (VH-VL) (scFv)
scFv: QVQLVQSGAEVKKPGASVKVSCKASGNIFTAQYMHWVRQAPGQGLEWMGWMNPNTVYTGSAQKFQGRVTMTRDTSTSTVYMELSSLRSEDTAVYYCARDWVGDGYNSFDYWGQGTLVTVSSGGGGSGGGGSGGGGSDIVMTQSPDSLAVSLGERATINCKSSQSVLYSSNNKNYLAWYQQKPGQPPKLLIYWASTRESGVPDRFSGSGSGTDFTLTISSLQAEDVAVYYCQQYYTTPFTFGPGTKVDIK
notes: as for B1
B6: TMPRSS4 Ab72 scFv (VH-VL) (scFv)
scFv: EVQLLESGGGLVQPGGSLRLSCAASGFTFGAYVMHWVRQAPGKGLEWVSSISGGSTYYADSVKGRFTISRDNSKNTLYLQMNSLRAEDTAVYYCARHPVRGVIGAGWFDPWGQGTLVTVSSGGGGSGGGGSGGGGSDIQMTQSPSSLSASVGDRVTITCRASQNISRWLAWYQQKPGKAPKLLIYAASSLQSGVPSRFSGSGSGTDFTLTISSLQPEDFATYYCQQAISFPLTFGGGTKVEIK
notes: as for B1
B7: TMPRSS4 Ab9 scFv (VH-VL) (scFv)
scFv: QVQLVQSGAEVKKPGASVKVSCKASGYTFTRYYMHWVRQAPGQGLEWMGWINPNSGGTNYAQKFQGRVTMTRDTSTSTVYMELSSLRSEDTAVYYCARGGSWGSGPLGYWGQGTLVTVSSGGGGSGGGGSGGGGSDIQMTQSPSSLSASVGDRVTITCQASQDISRFLHWYQQKPGKAPKLLIYGASNLKSGVPSRFSGSGSGTDFTLTISSLQPEDFATYYCQQSYSTPPTFGGGTKVEIK
notes: as for B1
B8: TMPRSS4 Ab71 scFv (VH-VL) (scFv)
scFv: EVQLLESGGGLVQPGGSLRLSCAASGFMFDYYAMHWVRQAPGKGLEWVSLISYDGRNKYYADSVKGRFTISRDNSKNTLYLQMNSLRAEDTAVYYCARPGSYSRFQHWGQGTLVTVSSGGGGSGGGGSGGGGSDIQMTQSPSSLSASVGDRVTITCRASQGISNNLNWYQQKPGKAPKLLIYAASSLQSGVPSRFSGSGSGTDFTLTISSLQPEDFATYYCQQANNFPITFGQGTKVEIK
notes: as for B1
B9: TMPRSS4 Ab7 scFv (VH-VL) (scFv)
scFv: QVQLVQSGAEVKKPGASVKVSCKASGYTFSRYFMHWVRQAPGQGLEWVGWINPNSGNTGYAQKFQGRVTMTRDTSTSTVYMELSSLRSEDTAVYYCARVVTGGRLDVWGQGTTVTVSSGGGGSGGGGSGGGGSEIVMTQSPATLSVSPGERATLSCRASQRVSNNYLAWYQQKPGQAPRLLIYGASTRASGIPARFSGSGSGTEFTLTISSLQSEDFAVYYCQQYGSTPYTFGQGTKVEIK
notes: as for B1
B10: TMPRSS4 Ab76 scFv (VH-VL) (scFv)
scFv: EVQLLESGGGLVQPGGSLRLSCAASGFTFSSYAMSWVRQAPGKGLEWVSAISGSGGNAYYADSVKGRFTISRDNAKNSLYLQMNSLRAEDTAVYYCAKNSWGSYRPRAFDIWGQGTMVTVSSGGGGSGGGGSGGGGSDIVMTQSPDSLAVSLGERATINCKSSQSVLYSSNNKNYLAWYQQKPGQPPKLLIYWASTRASGVPDRFSGSGSGTDFTLTISSLQAEDVAVYYCQQYLSLPYTFGQGTKVEIK
notes: as for B1
B11: TMPRSS4 Ab78 scFv (VH-VL) (scFv)
scFv: EVQLLESGGGLVQPGGSLRLSCAASGFTFSSYGMNWVRQAPGKGLEWVSAISGSGGRTYYADSVKGRFTISRDNAKNSLYLQMNSLRAEDTAVYYCAKGTYYSSPKYSFDYWGQGTLVTVSSGGGGSGGGGSGGGGSDIQMTQSPSSLSASVGDRVTITCRASQDIKNFLAWYQQKPGKAPKLLIYAASSLQSGVPSRFSGSGSGTDFTLTISSLQPEDFATYYCQQSYSTPWTFGQGTKLEIK
notes: as for B1
B12: TMPRSS4 Ab69 scFv (VH-VL) (scFv)
scFv: EVQLLESGGGLVQHGGSLRLSCAASGFAFSSYVLHWVRQAPGKGLEWVSSISSSSSYIYYADSVKGRFTISRDNSKNTLYLQMNSLRAEDTAVYYCARGDRYPGLPNYWGQGTLVTVSSGGGGSGGGGSGGGGSDIQMTQSPSSLSASVGDRVTITCRASQGISSWLAWYQQKPGKAPKLLIYQASNKDTGVPSRFSGSGSGTDFTLTISSLQPEDFATYYCQQSYRIPWTFGQGTKVEIK
notes: as for B1
B13: TMPRSS4 Ab66 scFv (VH-VL) (scFv)
scFv: QVQLVQSGAEVKKPGSSVKVSCKASGGTFSSYAISWVRQAPGQGLEWVGGIMPIFGTANYAQKFQGRVTITADESPSTAYMELSSLRSEDTAVYYCATGRRELLNWGQGTLVTVSSGGGGSGGGGSGGGGSEIVMTQSPATLSVSPGERATLSCRASQSVNSRFLAWYQQKPGQAPRLLIYGASTRATGIPARFSGSGSGTEFTLTISSLQSEDFAVYYCMQGTHWPYTFGQGTKVEIK
notes: as for B1
B14: TMPRSS4 Ab70 scFv (VH-VL) (scFv)
scFv: EVQLLESGGGLVQPGGSLRLSCAASGFAFSGTWMQWVRQAPGKGLEWVSDISGSSRDTNYADSVKGRFTISRDNSKNTLYLQMNSLRAEDTAVYYCAKDHWDSYGYLDYWGQGTLVTVSSGGGGSGGGGSGGGGSDIQMTQSPSSLSASVGDRVTITCRASQSISGWLAWYQQKPGKAPKLLIYAASTLRDGVPSRFSGSGSGTDFTLTISSLQPEDFATYYCQQANSFPLTFGQGTKVEIK
notes: as for B1
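Note: bound phage detected with a PE-labelled mouse anti-M13 monoclonal antibody, read by flow cytometry.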

The experiment deals with T1, Human TMPRSS4 (Transmembrane protease, serine 4), wild type full length (human, UniProt Q9NRS4 1-437).
T1 construct: Type II membrane protein over-expressed on HEK293T cells (also endogenous on H1975 and LUDLU-1 cells); also called TMPRSS4 WT; HEK293T-TMPRSS4
T1 sequence (Q9NRS4 whole entry): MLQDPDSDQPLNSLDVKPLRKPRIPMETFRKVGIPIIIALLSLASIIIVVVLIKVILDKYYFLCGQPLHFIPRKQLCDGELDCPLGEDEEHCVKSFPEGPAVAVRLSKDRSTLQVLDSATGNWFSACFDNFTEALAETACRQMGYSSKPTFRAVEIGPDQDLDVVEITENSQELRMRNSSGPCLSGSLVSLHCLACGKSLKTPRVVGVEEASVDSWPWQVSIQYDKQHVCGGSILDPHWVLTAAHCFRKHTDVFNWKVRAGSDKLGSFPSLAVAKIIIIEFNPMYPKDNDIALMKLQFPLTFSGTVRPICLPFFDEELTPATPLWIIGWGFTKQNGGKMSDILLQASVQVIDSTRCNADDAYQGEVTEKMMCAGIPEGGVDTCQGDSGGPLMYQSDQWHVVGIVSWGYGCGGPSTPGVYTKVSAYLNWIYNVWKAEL
The experiment in a line: flow cytometry, monoclonal phage on HEK293T-TMPRSS4 cells. (In general: In flow cytometry, cells or beads pass a laser one at a time.)
Turning to B1, the binding result is given as “binds”. Next, B2: “binds”.

With B3, the binding result is “binds”.

As for B4, the binding result was “binds”.

On to B5, for which the binding result is “binds”. Next, B6: “binds”. For the molecule B7, the binding result was “binds”. Regarding B8, the binding result was “binds”. As to B9, the binding result is listed as “binds”.

As to B10, the binding result is reported as “binds”. In the case of B11, the binding result is “binds”.

Regarding B12, the binding result was “binds”. Regarding B13, the binding result is “binds”. Take B14: the binding result is “binds”.
